Here are results for one molecule from PMC9458457, “Processing oxidatively damaged bases at DNA strand breaks by APE1”.

The data set concerns the target dAPE1 C138A E96Q/D210N (crystallization) (human, UniProt P27695 44-318, E96Q;C138A;D210N;del1-43). Kind of data set: X-ray crystallography; 5 mM CaCl2 in reservoir; Anisotropy: 50 mM HEPES pH 7.4, 100 mM KCl, 5% glycerol, 20 mM EDTA, 37 C, 10 nM DNA. Crystals: 7-14% PEG 20K, 100 mM sodium citrate pH 5.0, 15% glycerol, 5 mM. The conditions noted are these: protein: recombinant; tags: untagged; nicked duplex, blunt ends; 8-oxoG opposite C (strand 1 position 12).

dAPE1 C138A E96Q/D210N (crystallization), sequence (P27695 44-318 E96Q/C138A/D210N): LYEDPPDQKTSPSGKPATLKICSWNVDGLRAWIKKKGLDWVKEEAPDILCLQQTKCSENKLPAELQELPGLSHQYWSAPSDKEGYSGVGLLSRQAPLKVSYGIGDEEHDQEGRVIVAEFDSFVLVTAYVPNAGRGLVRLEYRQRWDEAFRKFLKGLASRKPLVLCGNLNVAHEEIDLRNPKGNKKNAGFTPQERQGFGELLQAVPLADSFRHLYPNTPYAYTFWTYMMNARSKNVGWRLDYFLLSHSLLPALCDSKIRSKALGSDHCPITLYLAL

B1: 21-mer nicked 3'-8-oxoG opposite C (crystal) (mixed)
DNA 1: GGATCCGTCGACCGCATCAGC
DNA 2: GCTGATGCGG
DNA 3: TCGACGGATCC
modifications: 8-oxoG at 3' end of strand 2 (position 10, written G); 5'-phosphate on strand 3
With B1, the binding result is listed as “binds”.
